Experimental data taken from patent publication US20110306096A1 (PACIFIC BIOSCIENCES OF CALIFORNIA, published 2011).
Where a chain is given by its changes, count along the chain named.

B1: SEQ ID NO 11 (other, phi29)
chain: LNDIFNAQKIEWHHHHHHHHHHHMKHMPRKMYSCDFETTTKVEDCRVWAYGYMNIEDHSEYKIGNSLDEFMAWVLKVQADLYFHNLKFDGAFIINWLERNGFKWSADGLPNTYNTIISRMGQWYMIDICLGYKGKRKIHTVIYDSLKKLPFPVKKIAKDFKLTVLKGDIDYHKERPVGYKITPEEYAYIKNDIQIIAEALLIQFKQGLDRMTAGSDSLKGFKDIITTKKFKKVFPTLSLGLDKEVRYAYRGGFTWLNDRFKEKEIGEGMVFDVNSLYPAQMYSRLLPYGEPIVFEGKYVWDEDYPLHIQHIRCEFELKEGYIPTIQIKRSRFYKGNEYLKSSGGEIADLWLSNVDLELMKEHYDLYNVEYISGLKFKATTGLFKDFIDKWTYIKTTSEGAIKQLAKLMLNSLYGKFASNPDVTGKVPYLKENGALGFRLGEEETKDPVYTPMGVFITAWARYTTITAAQACYDRIIYCDTDSIHLTGTEIPDVIKDIVDPKKLGYWAHESTFKRAKYLRQKTYIQDIYMKEVDGKLVEGSPDDYTDIKFSVKCAGMTDKIKKEVTFENFKVGFSRKMKPKPVQVPGGVVLVDDTFTIK
modifications: biotin on the lysine of the biotinylation peptide (in-vivo biotinylation by biotin ligase)
notes: N-terminus-biotinylation peptide-His(10)-phi29 pol-C-terminus; expressed in E. coli co-expressing biotin ligase, Ni-NTA purified
B2: SEQ ID NO 12 (other, phi29)
chain: B1 chain with N6S
modifications: biotin on the lysine of the biotinylation peptide (in-vivo biotinylation by biotin ligase)
notes: as for B1
B3: SEQ ID NO 5 (other, phi29)
chain: B1 chain with L1I, N6E
modifications: biotin on the lysine of the biotinylation peptide (in-vivo biotinylation by biotin ligase)
notes: as for B1
B4: SEQ ID NO 10 (other, phi29)
chain: B1 chain with N6H
modifications: biotin on the lysine of the biotinylation peptide (in-vivo biotinylation by biotin ligase)
notes: as for B1
B5: SEQ ID NO 4 (other, phi29)
chain: B1 chain with L1I, I4L, N6S
modifications: biotin on the lysine of the biotinylation peptide (in-vivo biotinylation by biotin ligase)
notes: as for B1
B6: SEQ ID NO 7 (other, phi29)
chain: B1 chain with I4L, N6E
modifications: biotin on the lysine of the biotinylation peptide (in-vivo biotinylation by biotin ligase)
notes: as for B1
B7: SEQ ID NO 6 (other, phi29)
chain: B1 chain with D3L, N6E
modifications: biotin on the lysine of the biotinylation peptide (in-vivo biotinylation by biotin ligase)
notes: as for B1
B8: SEQ ID NO 8 (other, phi29)
chain: B1 chain with I4F, N6E
modifications: biotin on the lysine of the biotinylation peptide (in-vivo biotinylation by biotin ligase)
notes: as for B1
B9: SEQ ID NO 3 (other, phi29)
chain: B1 chain with I4F
modifications: biotin on the lysine of the biotinylation peptide (in-vivo biotinylation by biotin ligase)
notes: as for B1

Target: T1, streptavidin (UniProt P22629 37-163, limits assumed)
T1 construct: Used at a 2-fold molar excess over the fusion protein
T1 sequence (P22629 37-163 limits assumed): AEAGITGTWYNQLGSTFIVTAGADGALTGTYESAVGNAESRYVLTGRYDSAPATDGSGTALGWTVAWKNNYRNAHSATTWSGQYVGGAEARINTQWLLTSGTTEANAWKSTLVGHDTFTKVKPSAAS
Test: HPLC after mixing the purified fusion protein with a 2-fold molar excess of streptavidin
Protocol: Each of the DNA sequences encoding the affinity peptides was added individually to the 5′ terminus of a His(10)-tagged phi29 DNA polymerase gene such that the polypeptide expressed from each construct was a fusion protein consisting of: N-terminus-biotinylation peptide-His(10)-phi29 pol-C-terminus. Each gene was expressed in E. coli cells co-expressing biotin ligase in culture medium containing biotin. These conditions are known to effect the in-vivo biotinylation of biotinylation peptides. Proteins were purified using Ni-NTA columns and then mixed with a 2-fold molar excess of streptavidin under conditions known to effect binding of streptavidin to biotinylated fusion proteins.
The degree of biotinylation of each protein was assessed by HPLC. […] None of the biotinylation peptides affected the polymerase activity when tested in a branching fraction assay performed, for example, as described in U.S. patent application No. 2010/0112645.

| Binder | percent bound to streptavidin [%] |
| --- | --- |
| B1 | ~100 |
| B2 | ~100 |
| B3 | ~100 |
| B4 | ~100 |
| B5 | ~100 |
| B6 | ~100 |
| B7 | ~100 |
| B8 | ~100 |
| B9 | ~100 |
